Tests used:
[1] = target: Recombinant human TRIM21 PRYSPRY domain (His-tagged, expressed in E. coli BL21 (DE3)) (human) (UniProt P19474); experiment: SPR, antibody immobilized, TRIM21 PRYSPRY as analyte
[2] = target: Human TRIM21 (endogenous, cytosolic, in moDC and HeLa cells) (human) (UniProt P19474); experiment: cell-based or functional assay
[3] = target: Recombinant human TRIM21 PRYSPRY domain (His-tagged, expressed in E. coli BL21 (DE3)) (human) (UniProt P19474); experiment: SPR, antibody immobilized, TRIM21 PRYSPRY as analyte; the column's head prints (M), the text gives 125 nM
[4] = target: Recombinant human TRIM21 PRYSPRY domain (His-tagged, expressed in E. coli BL21 (DE3)) (human) (UniProt P19474); experiment: SPR (ProteON XPR36), antibody amine-coupled to GLC chip, TRIM21 PRYSPRY as analyte, Langmuir 1:1

Recombinant human TRIM21 PRYSPRY domain (His-tagged, expressed in E. coli BL21 (DE3)) (human), sequence (P19474 287-475): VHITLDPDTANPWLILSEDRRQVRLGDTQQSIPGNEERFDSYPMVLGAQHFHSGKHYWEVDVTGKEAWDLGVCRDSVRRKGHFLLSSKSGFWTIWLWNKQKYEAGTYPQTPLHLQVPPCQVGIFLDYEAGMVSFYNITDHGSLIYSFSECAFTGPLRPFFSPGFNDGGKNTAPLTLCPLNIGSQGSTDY
Human TRIM21 (endogenous, cytosolic, in moDC and HeLa cells) (human), sequence (P19474 whole entry, the tested form may be a part): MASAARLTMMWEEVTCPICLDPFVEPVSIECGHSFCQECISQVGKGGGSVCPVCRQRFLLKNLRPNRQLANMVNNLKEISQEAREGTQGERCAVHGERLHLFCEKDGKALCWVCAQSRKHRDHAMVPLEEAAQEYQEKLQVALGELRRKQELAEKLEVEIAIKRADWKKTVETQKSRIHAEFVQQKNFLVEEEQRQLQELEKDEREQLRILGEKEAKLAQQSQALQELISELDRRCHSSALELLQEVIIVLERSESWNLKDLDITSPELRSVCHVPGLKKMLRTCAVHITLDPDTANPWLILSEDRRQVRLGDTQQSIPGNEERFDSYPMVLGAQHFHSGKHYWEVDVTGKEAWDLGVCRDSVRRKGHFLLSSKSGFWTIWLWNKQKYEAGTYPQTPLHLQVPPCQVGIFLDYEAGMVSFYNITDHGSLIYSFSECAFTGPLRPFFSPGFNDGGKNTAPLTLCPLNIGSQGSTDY

Row | Substance | Kd [1] | other results
1 | V1 chimeric IgG1 (9C12 variable domains, human IgG1 with 256P/434R/436F/440I Fc) (antibody) | 10.8 nM | 
2 | V5 chimeric IgG1 (9C12 variable domains, human IgG1 with 433T/434R/436F/440I Fc, Thr at 256) (antibody) | 23.5 nM | 
3 | V3 chimeric IgG1 (9C12 variable domains, human IgG1 with 256P/433T/434R/440I Fc) (antibody) | 0.211 nM | 
4 | Wildtype chimeric IgG1 (anti-Ad5 hexon, mouse 9C12 variable domains, wildtype human IgG1 constant regions) (antibody) |  | IC50 of ADIN of Ad5-eGFP infection in moDCs, MOI 400 [2]: 3 nM; IC50 of antibody-dependent intracellular neutralization (ADIN) of Ad5-eGFP infection in HeLa cells, MOI 1.2 [2]: 900 nM; Kd [3]: 125 nM
5 | V2 chimeric IgG1 (9C12 variable domains, human IgG1 with 256P/433T/436F/440I Fc) (antibody) | 1620 nM | 
6 | Fc-unmodified human IgG1 (anti-DEC205, variable domains of 3G9-2D2, wildtype human IgG1 constant regions) (antibody) |  | Kd [4]: 47.3 nM
7 | V4 chimeric IgG1 (9C12 variable domains, human IgG1 with 256P/433T/434R/436F Fc) (antibody) | 0.276 nM | 

Reference: patent US20220340684A1
